Reference: patent US20260364189 (published 2026)

Key:
hTFR1-His = hTFR1-His (human, UniProt P02786); experiment: SPR
fasTFR1 (cell-expressed) = biological target: T1, fasTFR1 (cell-expressed) (Macaca fascicularis); experiment: FACS
T1 chain: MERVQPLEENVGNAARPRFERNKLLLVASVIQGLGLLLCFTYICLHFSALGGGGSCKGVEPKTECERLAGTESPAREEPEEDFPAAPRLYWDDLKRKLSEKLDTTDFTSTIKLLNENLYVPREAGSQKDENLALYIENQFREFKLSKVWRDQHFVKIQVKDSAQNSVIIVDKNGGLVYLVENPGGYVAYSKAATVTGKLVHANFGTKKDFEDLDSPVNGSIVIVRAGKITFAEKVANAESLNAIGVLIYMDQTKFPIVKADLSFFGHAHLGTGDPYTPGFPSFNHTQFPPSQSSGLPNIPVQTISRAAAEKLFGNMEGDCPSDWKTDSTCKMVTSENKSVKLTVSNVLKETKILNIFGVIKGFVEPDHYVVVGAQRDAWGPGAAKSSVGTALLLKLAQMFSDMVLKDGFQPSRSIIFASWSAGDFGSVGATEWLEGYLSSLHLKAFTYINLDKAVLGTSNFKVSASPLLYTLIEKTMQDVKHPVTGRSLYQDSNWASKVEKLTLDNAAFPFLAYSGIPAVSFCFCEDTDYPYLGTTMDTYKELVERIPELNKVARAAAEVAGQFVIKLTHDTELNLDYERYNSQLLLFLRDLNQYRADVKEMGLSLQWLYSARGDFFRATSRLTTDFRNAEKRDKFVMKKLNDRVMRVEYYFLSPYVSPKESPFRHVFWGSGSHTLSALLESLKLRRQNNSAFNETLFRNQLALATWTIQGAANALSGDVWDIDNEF

Sequence of hTFR1-His (P02786 89-760): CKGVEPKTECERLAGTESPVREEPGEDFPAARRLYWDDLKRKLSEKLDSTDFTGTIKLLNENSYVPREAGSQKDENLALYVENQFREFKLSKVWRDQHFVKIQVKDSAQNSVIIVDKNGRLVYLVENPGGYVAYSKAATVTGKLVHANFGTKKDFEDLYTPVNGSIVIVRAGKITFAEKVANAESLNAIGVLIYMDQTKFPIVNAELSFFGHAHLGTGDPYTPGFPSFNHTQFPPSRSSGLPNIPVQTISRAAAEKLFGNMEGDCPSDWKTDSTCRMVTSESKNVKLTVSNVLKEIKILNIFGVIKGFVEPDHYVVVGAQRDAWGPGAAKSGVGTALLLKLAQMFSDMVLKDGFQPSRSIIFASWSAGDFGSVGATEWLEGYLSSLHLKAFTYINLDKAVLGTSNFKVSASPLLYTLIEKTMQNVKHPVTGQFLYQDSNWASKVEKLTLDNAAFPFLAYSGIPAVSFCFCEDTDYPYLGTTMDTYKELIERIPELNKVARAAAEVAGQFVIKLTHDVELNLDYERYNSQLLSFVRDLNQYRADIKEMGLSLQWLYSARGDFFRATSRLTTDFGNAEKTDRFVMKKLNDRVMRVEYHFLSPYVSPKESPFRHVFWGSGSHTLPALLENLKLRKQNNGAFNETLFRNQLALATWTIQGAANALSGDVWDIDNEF

B1: 24C9 (antibody, V domains shown)
VH: EVQLVQSGGGVVQPGRSLRLSCAASGFTLSSYGMYWVRQAPGKGREWVAFIRFDESKKYYADSVKGRFTISRDNSKNTLYLQMNSLRAEDTAVYYCARDGEGGYCTNGVCHGLDVWGQGTTVTVSS
Kd (hTFR1-His): 14.3 nM
binding result (fasTFR1 (cell-expressed)): no binding

B2: 24G5 (designed binder)
chain: QLQLQESGGGLVQPGGSLRLTCAASGFTFSSFAMSWVRQAPGKGLERVSEISDSGGNTYYADSVKGRFTISRDNSKNTLYLQMNSLRAEDTAVYYCAKDDSSGWAFNIWDQGTVVTVSS
Kd (hTFR1-His): 2.05 nM

B3: 24A1 (designed binder)
chain: EVQLVESGGGLVQPGGSLRLTCAASGFTFSSYAMSWVRQAPGKGLERVSEISGSGSSTNYADSVKGRFTISRDNSKNTLYLQMNSLRAEDTAVYYCAKDDSSGWAFNIWDQGTVVTVSS
Kd (hTFR1-His): 2.93 nM

B4: 23B8 (antibody, V domains shown)
VH: QVTLKESGGGLVKPGGSLRLSCAASGFPFSNAWMNWVRQAPGKGLEWVGHIKSKTDGGTTDYAAPVKGRFTISRDDSKNMVFLQMNSLKTEDTAVYYCTTDRAYCGGDCSHYYYHDLDVWGQGTTVTVSS
Kd (hTFR1-His): 8.73 nM
